Where two headings read alike, the source gives them in different places.
B1: nanobody M1R-01 (monovalent) (VHH)
VHH: QVQLVESGGGLVQAGGSLRLSCAASGFIFHNFDMGWYRQAPGKEREFVAAISDNGRSTYYADSVKGRFTISRDNAKNTVYLQMNSLKPEDTAVYYCAVAWLSIPDLAEWYDYWGQGTQVTVSS
B2: recombinant MPXV [change] protein (ectodomain, His-tagged) (domain or fragment)
chain: MGAAASIQTTVNTLSERISSKLEQEANASAQTKCDIEIGNFYIRQNHGCNITVKNMCSADADAQLDAVLSAATETYSGLTPEQKAYVPAMFTAALNIQTSVNTVVRDFENYVKQTCNSSAVVDNKLKIQNVIIDECYGAPGSPTNLEFINTGSSKGNCAIKALMQLTTKATTQIAPRQVAG

Tests used:
Experiment in all cases: SPR
[1] = target: T1, recombinant MPXV [change] protein (ectodomain, His-tagged) (mpox virus (MPXV), isolate …)
[2] = target: T1, recombinant MPXV [change] protein …; remark: listed apart in the source
[3] = target: 7D11

Binder | Kd [1] [nM] | Kd [2] [nM] | Kd [3] [nM]
B1 | 40.4 | 40 | –
B2 | – | – | 0.0198
